# Assay results taken from PMC12737490, “Beta Toxins Isolated from the Scorpion Centruroides hirsutipalpus (Scorpiones; Buthidae) Affect the Function of Sodium Channels of Mammals” (Toxins, 2025).
# Legend:
# [1] = test system: CD1 strain albino mice; experiment: Toxicity and lethality tests in mice (intraperitoneal); format: in vivo, Mus musculus; design: key to Toxicity: Non-toxic: “non-toxic” when the mice exhibited normal physiological and behavioral patterns indistinguishable from the control group; Toxic: “toxic” when the animals developed signs of intoxication, such as excitability, excessive salivation, transient paralysis, breathing difficulty, diarrhea, impaired coordination or movement, or excessive tearing. These symptoms would appear after administration but fully resolve within 24 h without lasting effects; Lethal: “lethal” when the mice showed severe manifestations of intoxication, including progressive paralysis, marked respiratory distress, convulsions, or complete loss of mobility, leading to death during the observation period as a direct consequence of exposure; settings: 20 g CD1 mice; for symptoms in affected animals / time to death after injection / lethality in murine models: 30 µg in 100 µL PBS; for lethality in murine models / Toxicity: monitored 24 h, in triplicate; for Toxicity: 30 µg of each fraction in 100 µL PBS
# Protocol: Toxicity assays. Toxicity and lethality tests of FPLC and HPLC fractions containing the toxins were conducted on CD1 strain albino mice (Mus musculus) weighing 20 g. The mice received intraperitoneal injections of 30 µg of each fraction diluted in 100 µL of Phosphate-buffered saline (PBS), while control mice were injected with sterile water. The mice were monitored for 24 h. […] A treatment was categorized as “toxic” when the animals developed signs of intoxication, such as excitability, excessive salivation, transient paralysis, breathing difficulty, diarrhea, impaired coordination or movement, or excessive tearing. These symptoms would appear after administration but fully resolve within 24 h without lasting effects. […] The experiments were conducted in triplicate. The Bioethics Committee approved the Animal Welfare protocol used in this study (Project 413).
# [2] = test system: antibody; experiment: Antibody recognition of Chirp9 compared with Cl13; format: binding; settings: effect of the two amino acid differences between Chirp9 and Cl13
# Excerpt: Evaluation of the recognition capability of scFvs for the toxins of C. hirsutipalpus. Surface plasmon resonance (SPR) evaluations of the recognition capability of scFvs for the toxins of C. hirsutipalpus. The toxins from C. hirsutipalpus were used to evaluate the recognition capacity of antibody fragments previously generated against Mexican scorpion toxins in a biosensor that detects molecular interactions in real time (Biacore X100, Uppsala, Sweden). The toxins Chirp7 and Chirp9 were covalently immobilized onto the surface of CM5 Chips using the amino coupling kit, achieving binding levels of 200 RUs (1 RU corresponds to a change in surface concentration of approximately one pg of bound mass per mm^2). Each pure toxin was solubilized in 10 mM 2-(N-morpholino) ethanesulfonic acid (pH 6) and bound to cell 2. Cell 1 in the sensor (without bound toxin) was used as a control. The scFvs LR, 10FG2, 11F, HV, and RAS 27 [21] were evaluated for their ability to recognize each toxin.
Molecule,symptoms in affected animals [1],time to death after injection [1],lethality in murine models [1],lethality in murine models ([1]; listed as FII.7),Toxicity [1],antibody recognition of Chirp9 versus Cl13 [2],lethality in murine models ([1]; listed as FII.9)
"Chirp7 (disulfide (positions not given here); also: four disulfide bridges, pairing not given here) KEGYLVNHSTGCKYECFKLGDNDYCLRECRQQYGKGAGGYCYAFGCWCTHLYEQAVVWPLPKKTCN-NH2","hyperexcitability, tremors, piloerection, hypersalivation, transient paralysis, dyspnea, motor incoordination, severe respiratory distress, and, ultimately, death",approximately 20 min,pronounced lethality,particularly lethal effects,Lethal,–,–
"Chirp9 (disulfide (positions not given here); also: four disulfide bridges, pairing not given here) KEGYIVDYHTGCKYTCAKLGDNDYCVRECRLRYYQSAHGYCYAFACWCTHLYEAAVVWPLPNKRCK-NH2","hyperexcitability, tremors, piloerection, hypersalivation, transient paralysis, dyspnea, motor incoordination, severe respiratory distress, and, ultimately, death",approximately 20 min,pronounced lethality,–,Lethal,significantly reduce antibody recognition,particularly lethal effects
